Measurements: paper PMC3427180, “Zea mays Taxilin Protein Negatively Regulates Opaque-2 Transcriptional Activity by Causing a Change in Its Sub-Cellular Distribution” (PLoS ONE, 2012)

Target: T1, Full length Zea mays Opaque-2 (ZmO2) fused to the GAL4 DNA binding domain (Zea mays, UniProt P12959 1-453)
T1 sequence (looked up): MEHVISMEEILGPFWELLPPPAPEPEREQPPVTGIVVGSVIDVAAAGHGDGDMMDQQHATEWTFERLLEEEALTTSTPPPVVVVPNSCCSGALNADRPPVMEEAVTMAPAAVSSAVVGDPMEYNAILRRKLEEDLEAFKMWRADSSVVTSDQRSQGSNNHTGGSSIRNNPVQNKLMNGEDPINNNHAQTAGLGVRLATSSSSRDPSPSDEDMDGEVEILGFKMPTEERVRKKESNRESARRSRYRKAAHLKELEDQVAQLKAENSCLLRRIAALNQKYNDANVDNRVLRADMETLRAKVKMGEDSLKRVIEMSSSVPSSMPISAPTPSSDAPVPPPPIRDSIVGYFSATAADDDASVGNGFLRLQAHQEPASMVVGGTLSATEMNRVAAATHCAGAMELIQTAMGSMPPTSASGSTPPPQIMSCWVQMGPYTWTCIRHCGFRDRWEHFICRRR
Experiment: cell-based or functional assay

B1: Full length ZmTaxilin fused to the GAL4 activation domain (natural protein, Zea mays, UniProt C0P5X2 1-425, looked up)
chain: MEGSPVARLPEANSLPDGFVPDSESSDTDAAPPSSAPIVDDAIDSDSPDATNPGGEETLSDPSLPASTAEDASSAAAAEALDTLCLDVVADPERALGEHGPTTAARGEGSLKENRASEQVGAPSDQKVVKGSGEPKRKVIKHSKLEKDKELFQLAQQYHKVVAERDQAIAVKDRLESLCREFQRQNKMLKEECQRVSTEGQNMRTELSEKFDHAIKGVSAKLEEQRVERISQLEENNTLRSKLKDLADQYNITQQKYAHQLKEKMLELELADLRLQQHQEKAAQEHTQMQLYAEQVSQLMTTEKNLRLQLASDGERFQHFQDALSKSNEVFETYKQEMEKMISVIKNLKKENEFLKGKCENSDIAIVKLIEERELTKKQIEKLKNQREKLESLCRTLQAERKQGPSASIPDAPSSQEVSATSQES
- GUS/luciferase ratio from the z1C (22-kD zein) promoter reporter in onion epidermal cells; YFP-O2 co-expressed with CFP-Taxilin against YFP-O2 alone: 47%
